These results are taken from US8420051B2, “Muteins of hNGAL and related proteins with affinity for a given target” (Technische Universitaet Meunchen, priority 2008, dated 2013).

Data set [1] deals with selected hNGAL muteins from the library randomized at positions 33, 36, 41, 52, 54, 68, 70, 79, 81, 134, 136 and 138 (Homo sapiens, UniProt P80188). Nature of the data set: ELISA, hexachloronorbornene hapten. To be noted: preliminary, data not shown. The class given is binding. An excerpt: The hNGAL library obtained in Example 2 was used to generate muteins having affinity to a hexachloronorbonene hapten. In more detail, the hexachloronorbornene hapten used was hexachloronorbornene N—(CH2)5—COOH the synthesis of which was reported by Hilvert et al., J. Am. Chem. Soc. 1989, Vol. 111, 9261-9262 (compound 2 in FIG. 1 of Hilvert et al) which represents a transition state analogue for the [4+2] Diels-Alder reaction (see also, Xu et al., Science, 1999, Vol. 286, 2345-2348). Generation of the hNGAL muteins were carried out essentially in accordance with the experimental procedure as described in Example 3 above and muteins with binding activity to the to hexachloronorbornene hapten were isolated and characterized by ELISA.
selected hNGAL muteins from the library randomized at positions 33, 36, 41, 52, 54, 68, 70, 79, 81, 134, 136 and 138, sequence (P80188 21-198, stated change not applied): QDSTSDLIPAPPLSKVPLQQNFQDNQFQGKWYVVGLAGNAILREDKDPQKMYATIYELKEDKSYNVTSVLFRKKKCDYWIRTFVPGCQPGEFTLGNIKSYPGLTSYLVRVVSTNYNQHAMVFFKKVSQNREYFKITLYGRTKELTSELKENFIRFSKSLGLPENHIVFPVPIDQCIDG
In general terms: An ELISA detects its analyte on a solid surface through an enzyme-linked reagent.

Data set [2] addresses T1, hNGAL mutein CL31, SEQ ID NO: 31 (L1 + V44M/N65D/G86S/S87P/S99N/L107F) (Homo sapiens, UniProt P80188, C107P/D67E/D97E/E64M/G106S/I100T/I61A/I75T/K154S/K66P/K70L/K95M/L127F/L56R/L62P/L90R/M71L/N85D/P68L/Q48H/Q69L/R101M/R63P/S119N/S147Q/S88A/T156S/T165A/T74Q/V53Q/W99L/Y158L/Y72T).
T1 construct: the mature hNGAL protein and the C-terminal Strep-tag II; Strep-tag II (C); OmpA signal peptide (N, cleaved yes); made in house; host or cells: E. coli (periplasm)
Nature of the data set: SPR (Biacore), immobilized Y•DTPA-RNase. It counts as binding. The procedure:
FIG. 2E depicts the kinetic real time analysis of hNGAL variant CL31 measured on a Biacore instrument at a flow rate of 25 μl/min. The Y•DTPA-RNase conjugate was coupled via amine chemistry to a CM5 sensor chip (ΔRU=300), and the purified hNGAL variant CL31 was applied at varying concentrations as indicated. The measured signal is shown as a gray line and the fitted curve as a black line in each case.
(§1) Real time analysis of hNGAL variants was performed on a BIAcore X system (BIAcore, Uppsala, Sweden) using PBS/t (PBS containing 0.005% (v/v) Tween 20) as running buffer. 5 to 27 μg/ml solutions of the Me•DTPA-RNase conjugate in 10 mM Na-acetate, pH 5.0 were immobilized on a CM5 chip using standard amine coupling chemistry, resulting in a ligand density of 240 to 1800 resonance units (RU). The purified hNGAL variant was applied at a flow rate of 5 or 25 μl/min at concentrations of 0.5 up to 500 nM. The sensorgrams were corrected by subtraction of the corresponding signals measured for the control channel, which had been activated and blocked with ethanolamine. Kinetic data evaluation was performed by global fitting with BIAevaluation software V 3.0 (Karlsson et al. (1991) J. Immunol. Methods 145, 229-240). Alternatively, the plateau values at the end of the association phase (after 200 s) were plotted against the applied protein concentration and fitted as in the ELISA (see above) to determine the equilibrium dissociation constants (KO.

In data set [3] the target is T2, hNGAL mutein C26, SEQ ID NO: 10 (Yd5 + L42P/P48L/Q49L/I55T (155T [sic])/K75M) (Homo sapiens, UniProt P80188, C107S/D97E/I100T/I61A/I75T/K154S/K95M/L56R/L62P/L90R/P68L/Q48H/Q69L/R101M/S147Q/S88A/T156S/T165A/T74Q/V53Q/W99L/Y158L/Y72T).
T2 construct: the mature hNGAL protein and the C-terminal Strep-tag II; OmpA signal peptide (N, cleaved yes); made in house; host or cells: E. coli BL21 or TG1-F- (periplasm), plasmid pNGAL15
T2 sequence (P80188 21-198 with the stated changes): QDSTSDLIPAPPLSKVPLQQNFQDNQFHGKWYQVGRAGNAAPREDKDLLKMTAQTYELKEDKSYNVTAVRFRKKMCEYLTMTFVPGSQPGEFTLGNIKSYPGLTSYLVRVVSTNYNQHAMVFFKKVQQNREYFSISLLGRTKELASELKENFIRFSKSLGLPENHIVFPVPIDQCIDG
The data set is described as follows: SPR (Biacore), immobilized Me•DTPA-RNase. The class given is binding. The procedure: FIG. 2D depicts the kinetic real time analysis of hNGAL variant C26 measured on a Biacore instrument. The Y•DTPA-RNase conjugate was coupled via amine chemistry to a CM5 sensor chip (ΔRU=240) and the purified hNGAL variant C26 was applied at varying concentrations. The measured signal is shown as a grey line whereas the curve fit is depicted as a black line in each case.
as §1
(§2) Finally, the hNGAL variants were analyzed by SPR using a Biacore CM-5 chip with the covalently attached Y-DTPA-RNaseA conjugate and applying the purified recombinant proteins (Table 3). […] The improved KD values result primarily from slower ligand dissociation.
(SPR reads the build-up and loss of mass on a sensor chip optically.)

The target in data set [4] is T3, hNGAL mutein L1, SEQ ID NO: 28 (C26 + R43P/E44V/K46P/D47E/K50L/M51L) (Homo sapiens, UniProt P80188, C107S/D67E/D97E/E64V/I100T/I61A/I75T/K154S/K66P/K70L/K95M/L56R/L62P/L90R/M71L/P68L/Q48H/Q69L/R101M/R63P/S147Q/S88A/T156S/T165A/T74Q/V53Q/W99L/Y158L/Y72T).
T3 construct: the mature hNGAL protein and the C-terminal Strep-tag II; Strep-tag II (C); OmpA signal peptide (N, cleaved yes); made in house; host or cells: E. coli (periplasm)
T3 sequence (P80188 21-198 with the stated changes): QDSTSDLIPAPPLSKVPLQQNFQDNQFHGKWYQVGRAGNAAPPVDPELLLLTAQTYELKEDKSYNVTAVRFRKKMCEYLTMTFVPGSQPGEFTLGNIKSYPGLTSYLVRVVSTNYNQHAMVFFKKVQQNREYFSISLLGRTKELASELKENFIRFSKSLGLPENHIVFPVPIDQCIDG
The data set is described as follows: SPR (Biacore), immobilized Y-DTPA-RNaseA. The class given is binding. How it is done: as §1
The new hNGAL variant L1 was analyzed by SPR as in Example 8 using a Biacore CM-5 chip with the covalently attached Y-DTPA-RNaseA conjugate and applying the purified recombinant protein.

The target in data set [5] is T4, human neutrophil gelatinase-associated lipocalin (hNGAL, lipocalin 2, P80188), wild type, SEQ ID NO: 1 (Homo sapiens, UniProt P80188).
T4 construct: the mature hNGAL protein and the C-terminal Strep-tag II; OmpA signal peptide (N, cleaved yes); made in house; host or cells: E. coli BL21 or TG1-F- (periplasm), plasmid pNGAL14
T4 sequence (P80188 21-198, one chain of several): as the sequence (P80188 21-198, stated change not applied) above
Nature of the data set: SPR (Biacore), immobilized Me•DTPA-RNase. To be noted: immobilized Y-DTPA-RNaseA. It counts as binding. How it is done: as §1, §2

For data set [6], the target named is T5, hNGAL mutein Tb7.N9.N34, SEQ ID NO: 7 (Tb7.N9 + S127Q) (Homo sapiens, UniProt P80188, C107S/I100T/I61A/K154S/L56R/L90R/Q48H/R101M/S147Q/S88A/T165A/T74Q/V53Q/W99L/Y158L/Y72T).
T5 construct: the mature hNGAL protein and the C-terminal Strep-tag II; Strep-tag II (C); OmpA signal peptide (N, cleaved yes); made in house; host or cells: E. coli BL21 or TG1-F- (periplasm), plasmid pNGAL15
T5 sequence (P80188 21-198 with the stated changes): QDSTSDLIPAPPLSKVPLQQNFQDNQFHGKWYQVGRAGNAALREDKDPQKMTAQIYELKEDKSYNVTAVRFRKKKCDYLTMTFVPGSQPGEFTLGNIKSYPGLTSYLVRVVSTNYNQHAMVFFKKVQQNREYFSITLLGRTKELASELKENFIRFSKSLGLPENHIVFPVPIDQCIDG
Nature of the data set: SPR (Biacore), immobilized Me•DTPA-RNase. It counts as binding. The note with it: 5 μl/min. How it is done: as §1, §2

Data set [7] deals with hNGAL mutein Ya6, SEQ ID NO: 8 (Tb7.N9.N34 with Thr136Ser). The data set is described as follows: SPR (Biacore), immobilized Me•DTPA-RNase. It counts as binding, human. The note with it: vs parental Tb7. How it is done: as §1, §2
Data set [8] addresses T6, hNGAL mutein Yd5, SEQ ID NO: 9 (Tb7.N9.N34 + D77E/T136S) (Homo sapiens, UniProt P80188, C107S/D97E/I100T/I61A/K154S/L56R/L90R/Q48H/R101M/S147Q/S88A/T156S/T165A/T74Q/V53Q/W99L/Y158L/Y72T).
T6 construct: the mature hNGAL protein and the C-terminal Strep-tag II; OmpA signal peptide (N, cleaved yes); made in house; host or cells: E. coli BL21 or TG1-F- (periplasm), plasmid pNGAL15
The data set is described as follows: SPR (Biacore), immobilized Me•DTPA-RNase. It counts as binding. The note with it: for Kd: from the kinetic analysis, read-out: KD. How it is done:
as §1, §2

Data set [9] addresses T7, hNGAL mutein Tb7.N9, SEQ ID NO: 6 (Tb7 + A79L/I80T) (Homo sapiens, UniProt P80188, C107S/I100T/I61A/K154S/L56R/L90R/Q48H/R101M/S88A/T165A/T74Q/V53Q/W99L/Y158L/Y72T).
T7 construct: the mature hNGAL protein and the C-terminal Strep-tag II; OmpA signal peptide (N, cleaved yes); made in house; host or cells: E. coli BL21 or TG1-F- (periplasm), plasmid pNGAL15
Nature of the data set: SPR (Biacore), immobilized Me•DTPA-RNase. The class given is binding. To be noted: 5 μl/min. The procedure:
as §1, §2

The target of data set [10] is T8, hNGAL mutein Ya6, SEQ ID NO: 8 (Tb7.N9.N34 with Thr136Ser) (Homo sapiens, UniProt P80188, C107S/I100T/I61A/K154S/L56R/L90R/Q48H/R101M/S147Q/S88A/T156S/T165A/T74Q/V53Q/W99L/Y158L/Y72T).
T8 construct: the mature hNGAL protein and the C-terminal Strep-tag II; Strep-tag II (C); OmpA signal peptide (N, cleaved yes); made in house; host or cells: E. coli BL21 or TG1-F- (periplasm), plasmid pNGAL15
T8 sequence (P80188 21-198 with the stated changes): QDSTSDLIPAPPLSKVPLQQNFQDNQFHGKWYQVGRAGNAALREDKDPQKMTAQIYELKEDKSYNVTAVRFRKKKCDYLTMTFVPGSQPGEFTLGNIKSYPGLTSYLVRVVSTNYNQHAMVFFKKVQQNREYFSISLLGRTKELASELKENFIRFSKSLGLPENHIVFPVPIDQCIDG
The data set is described as follows: SPR (Biacore), immobilized Me•DTPA-RNase. The class given is binding. The note with it: 5 μl/min; for Kd: from the kinetic analysis, read-out: KD. How it is done: as §1, §2

The test system of data set [11] is hNGAL mutein Yd5, SEQ ID NO: 9 (Tb7.N9.N34 + D77E/T136S). Nature of the data set: SPR (Biacore), immobilized Me•DTPA-RNase. It counts as binding, human. The note with it: vs parental Tb7. How it is done: as §1, §2
Data set [12] addresses T9, hNGAL mutein Tb7, SEQ ID NO: 2 (Gln28His, Val33Gln, Leu36Arg, Ile41Ala, Tyr52Thr, Thr54Gln, Ser68Ala, Leu70Arg, Trp79Ala, Arg81Met, Cys87Ser, Lys134Ser, Tyr138L (Homo sapiens, UniProt P80188, C107S/I61A/K154S/L56R/L90R/Q48H/R101M/S88A/T165A/T74Q/V53Q/W99A/Y158L/Y72T)).
T9 construct: the mature hNGAL protein and the C-terminal Strep-tag II; OmpA signal peptide (N, cleaved yes); made in house; host or cells: E. coli BL21 or TG1-F- (periplasm), plasmid pNGAL15
The data set is described as follows: SPR (Biacore), immobilized Me•DTPA-RNase. The class given is binding. To be noted: 5 μl/min; for Kd: from the kinetic analysis, read-out: KD. The procedure: as §1, §2

Setting [13] is: read-out: affinity to the metal chelate ligand.
Where [14] appears, read: from the kinetic analysis, read-out: KD.

Read-outs that look alike come from different tables or passages of the source.

The koff is a measure of how fast the partners let go of each other. Usually kon stands for the rate constant with which the complex forms.

T9 sequence (P80188 21-198 Q48H/V53Q/L56R/I61A/Y72T/T74Q/S88A/L90R/W99A/R101M/C107S/K154S/Y158L/T165A): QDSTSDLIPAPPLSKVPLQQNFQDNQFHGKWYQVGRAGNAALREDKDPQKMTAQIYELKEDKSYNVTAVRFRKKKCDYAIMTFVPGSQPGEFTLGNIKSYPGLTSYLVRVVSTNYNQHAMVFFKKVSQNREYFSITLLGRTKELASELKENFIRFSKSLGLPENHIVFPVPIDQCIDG
T1 sequence (P80188 21-198 with the stated changes): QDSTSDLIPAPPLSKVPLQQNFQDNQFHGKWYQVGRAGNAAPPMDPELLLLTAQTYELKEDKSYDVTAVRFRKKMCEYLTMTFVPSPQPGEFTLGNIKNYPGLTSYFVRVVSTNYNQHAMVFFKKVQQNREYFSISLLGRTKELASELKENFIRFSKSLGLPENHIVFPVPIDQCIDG
T6 sequence (P80188 21-198 with the stated changes): as the sequence (P80188 21-198 Q48H/V53Q/L56R/I61A/Y72T/T74Q/S88A/L90R/W99A/R101M/C107S/K154S/Y158L/T165A) above, with D77E, A79L, I80T, S127Q, T136S counted along it
T7 sequence (P80188 21-198 Q48H/V53Q/L56R/I61A/Y72T/T74Q/S88A/L90R/W99L/I100T/R101M/C107S/K154S/Y158L/T165A): as the sequence (P80188 21-198 Q48H/V53Q/L56R/I61A/Y72T/T74Q/S88A/L90R/W99A/R101M/C107S/K154S/Y158L/T165A) above, with A79L, I80T counted along it

For `O=C(O)CCCCCN1C(=O)C2C(C1=O)C1(Cl)C(Cl)=C(Cl)C2(Cl)C1(Cl)Cl` (stereo not shown) [hexachloronorbornene hapten, hexachloronorbornene N—(CH2)5—COOH], in data set [1], the KD entry is given as “at least micromolar”.

B1: Y^3+•DTPA-RNase: p-SCN-Bn-CHX-A″-DTPA covalently coupled to bovine ribonuclease A (about 1:1), charged with Y^3+; ligand is the chelate group (conjugate, UniProt P61823 27-150, looked up)
Ribonuclease pancreatic: KETAAAKFERQHMDSSTSAASSSNYCNQMMKSRNLTKDRCKPVNTFVHESLADVQAVCSQKNVACKNGQTNCYQSYSTMSITDCRETGSSKYPNCAYKTTQANKHIIVACEGNPYVPVHFDASV
modifications: CHX-A''-DTPA chelate with Y3+
notes: p-SCN-Bn-CHX-A″-DTPA covalently coupled to bovine ribonuclease A (about 1:1), charged with Y^3+; ligand is the chelate group
Take B1: the results for the association rate constant in data set [2] and in data set [4] were 446000 M⁻¹ s⁻¹ and 296000 M⁻¹ s⁻¹, respectively. Further, the dissociation rate constant in data set [2] was 0.000106 s⁻¹; in data set [4], 0.000211 s⁻¹. The “half life of dissociation” value in [2] is on record as “ca. 1.8 h”. The Kd in [2] (setting [13]) is 0.237 nM; in data set [3] (5 μl/min, from the kinetic analysis, read-out: KD) it was 0.282 nM; in [3] (setting [13]) it was 0.282 nM; in data set [4], 0.713 nM; in data set [6] (setting [14]), 13.2 nM; in data set [8] (5 μl/min, listed as Y-DTPA-RNaseA), about 3 nM. For the same molecule, the Kd in data set [8] (5 μl/min) was 3.5 nM; in data set [9] (setting [14]) it was 14.3 nM; in [10] (listed as Y-DTPA-RNaseA), about 3 nM; in data set [10], 3.2 nM; in [12] (listed as Y-DTPA-RNaseA) it was 75 to 100 nM; in data set [12], 100 nM. Moreover, the koff in data set [3] (5 μl/min) was determined as 0.000704 s⁻¹; in [6] it was 0.0208 s⁻¹; in data set [8] (5 μl/min), 0.00345 s⁻¹; in data set [9] it was 0.023 s⁻¹; in data set [10], 0.00553 s⁻¹; in [12] it was 0.1 s⁻¹. For the same molecule, the kon in data set [3] (5 μl/min) is 2.5e+06 M⁻¹ s⁻¹; in [6], 1.57e+06 M⁻¹ s⁻¹; in [8] (5 μl/min) it was 984000 M⁻¹ s⁻¹; in data set [9], 1.61e+06 M⁻¹ s⁻¹; in [10], 1.72e+06 M⁻¹ s⁻¹; in [12] it was 998000 M⁻¹ s⁻¹. Besides, the binding activity entry in [5] is listed as “did not exhibit any significant binding activity”. Further, the “affinity improvement over Tb7” value in data set [7] and in data set [11] was “approximately 30 -fold” throughout. Besides, the τ1/2 result in data set [8] (half life of dissociation, listed as Y-DTPA-RNaseA) is on record as “ca. 200 s”.
